{
  "source": "paper PMC9952896",
  "key": {"[1]": {"biological_target": "XD-CGFP (not His-tagged) (measles virus | not stated) (UniProt P03422)", "experiment": "split reporter (BiFC, NanoBiT); split-GFP reassembly competition assay, GFP variant sg100: E. coli T7 cells co-transformed with the NGFP plasmid, the CGFP plasmid and p17Tet with a competitor or p17Tet-stop; 0.5 mM IPTG and 2% arabinose, overnight to 72 h at 17 °C; fluorescence (arbitrary units) divided by OD600 of cells resuspended in PBS, triplicates"}, "HSP-CGFP [GFP: P42212]": {"biological_target": "HSP-CGFP [GFP: P42212]", "experiment": "split reporter (BiFC, NanoBiT); split-GFP reassembly competition assay, GFP variant sg100: E. coli T7 cells co-transformed with the NGFP plasmid, the CGFP plasmid and p17Tet with a competitor or p17Tet-stop; 0.5 mM IPTG and 2% arabinose, overnight to 72 h at 17 °C; fluorescence (arbitrary units) divided by OD600 of cells resuspended in PBS, triplicates"}, "[2]": {"biological_target": "HSP (hsp70) (Homo sapiens) (UniProt P0DMV8)", "sequence (P0DMV8 2-641)": "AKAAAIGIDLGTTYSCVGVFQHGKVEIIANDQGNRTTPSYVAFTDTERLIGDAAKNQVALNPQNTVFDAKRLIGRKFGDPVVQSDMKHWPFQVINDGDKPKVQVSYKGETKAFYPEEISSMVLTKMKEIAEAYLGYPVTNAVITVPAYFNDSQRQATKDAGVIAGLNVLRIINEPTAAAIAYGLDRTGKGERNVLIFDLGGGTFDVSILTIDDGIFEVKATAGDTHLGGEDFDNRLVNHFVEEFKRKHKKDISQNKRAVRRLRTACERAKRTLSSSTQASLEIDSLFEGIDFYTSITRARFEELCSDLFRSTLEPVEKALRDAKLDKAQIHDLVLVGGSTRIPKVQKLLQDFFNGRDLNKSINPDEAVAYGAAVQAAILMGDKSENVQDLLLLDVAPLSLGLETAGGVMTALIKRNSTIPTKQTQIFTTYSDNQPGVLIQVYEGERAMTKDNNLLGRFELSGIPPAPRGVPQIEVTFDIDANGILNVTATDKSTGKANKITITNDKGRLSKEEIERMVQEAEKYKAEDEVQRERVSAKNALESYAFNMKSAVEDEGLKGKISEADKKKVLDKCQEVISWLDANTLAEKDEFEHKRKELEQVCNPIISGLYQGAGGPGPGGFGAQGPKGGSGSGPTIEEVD", "conditions": "cited from earlier work"}},
  "data": [
    {"substance": "NGFP alone (His-NGFP, from the construct NGFP-stop) (from UniProt P42212 1-157) (domain or fragment)", "values": [
      {"measurement": "fluorescence to OD600 ratio (arbitrary units/OD600)", "setting": "[1]", "value": 200},
      {"measurement": "fluorescence to OD600 ratio (arbitrary units/OD600)", "setting": "HSP-CGFP [GFP: P42212]", "value": 200}
    ]},
    {"substance": "NGFP-471 (His-NGFP-471) (from UniProt P42212 1-157; P04851 471-525) (domain or fragment)", "values": [
      {"measurement": "fluorescence signal (fluorescence/OD600) (arbitrary units/OD600)", "setting": "HSP-CGFP [GFP: P42212]", "value": 300}
    ]},
    {"substance": "Nucleoprotein NTAIL NTAIL (from UniProt P35972)", "values": [
      {"measurement": "Kd", "setting": "[2]", "value": 70, "unit": "µM"}
    ]}
  ]
}
